The results in this text go back to the supplement of paper PMC9732359.

± gives the uncertainty stated by the source.

This data set in a line: protein stability index of a GFP-peptide fusion (yeast GPS) (PSI 1-4); higher = more stable; sorted into four equal gates, so the index is relative within each strain. In short, it runs like this: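 Tiled 17-residue peptides from yeast proteins were fused downstream of GFP on a plasmid that also expresses Cherry, and the pooled library was carried in yeast. Mid-log cultures grown in leucine-free medium were sorted into four equal gates by GFP/Cherry fluorescence ratio. Plasmids from each gate were PCR-amplified and Illumina-sequenced, and reads were assigned to strains by barcodes. Each peptide's protein stability index is the sum, over gates, of the gate's read frequency multiplied by its gate number.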

With KEEVCQGMEGTVDLALF [YMR129W/POM152], the protein stability index is 3.45 ± 0.21 (doa10∆), 3.44 ± 0.27 (pdr5∆) and 3.26 ± 0.2 (san1∆).
On to CSRCGSVTRAGNIISSD [SIN4], for which the protein stability index runs as follows: (pdr5∆) 3.33 ± 0.26; (ubr1∆) 3.03 ± 0.22.
As to YILANHYLSRVLSDQVG [YJL039C/NUP192], the protein stability index worked out at 2.87 ± 0.064 (doa10∆), 2.98 ± 0.078 (pdr5∆), 2.72 ± 0.07 (san1∆) and 2.54 ± 0.049 (ubr1∆).
As for RCNDNLMRSCFYLMVSS [YJL039C/NUP192], the protein stability index by setting is: (doa10∆) 1.46 ± 0.043; (pdr5∆) 1.72 ± 0.054; (san1∆) 2.31 ± 0.057; (ubr1∆) 1.1 ± 0.038.
On the same counts, the results for TYLNEVLEKDAAIVKKY [YGR119C/NUP57] are 3.27 ± 0.11, 3.37 ± 0.093, 2.99 ± 0.076 and 3.08 ± 0.069.
TRAAKIAPRPLDLLRPV [RPL13A]: the protein stability index is 2.95 ± 0.091 (doa10∆), 3.27 ± 0.11 (pdr5∆), 3.15 ± 0.081 (san1∆) and 2.89 ± 0.054 (ubr1∆).
For the sequence LDDLQVILAKNENETRD [PGD1], the protein stability index reads like this: (doa10∆) 3.27 ± 0.099; (pdr5∆) 3.05 ± 0.08; (san1∆) 2.93 ± 0.14; (ubr1∆) 3.38 ± 0.078.
Turning to KLAAIVEIIDQKKVLID [RPL14A], the protein stability index (doa10∆) came out at 2.8 ± 0.18, the protein stability index (pdr5∆) was found to be 2.69 ± 0.088, the protein stability index (san1∆) amounted to 2.91 ± 0.072 and the protein stability index (ubr1∆) amounted to 2.73 ± 0.062.
Take VYEYVIASTLGPSAMRL [RPC82]: the protein stability index is 2.38 ± 0.21 (doa10∆), 1.6 ± 0.14 (san1∆) and 1.23 ± 0.097 (ubr1∆).
For the sequence SQVDPITLFVLVSVVEA [FAS2], the protein stability index turned out to be 1.44 ± 0.045 (doa10∆), 2.03 ± 0.069 (pdr5∆), 2.48 ± 0.077 (san1∆) and 1.45 ± 0.072 (ubr1∆).
In the case of ILSLEQSSRVVSLSQLL [YCS4], the protein stability index by setting is: (doa10∆) 1.84 ± 0.072; (pdr5∆) 1.5 ± 0.05; (san1∆) 2.12 ± 0.098; (ubr1∆) 1.85 ± 0.063.
For PRFLNKQERSKQERLKE [PRP28], in that order: 1.91 ± 0.091, 2.53 ± 0.13, 3.34 ± 0.11 and 2.13 ± 0.089.
For the sequence QSLGLDDLQKFNGIENQ [ISW2], the protein stability index reads like this: (doa10∆) 2.77 ± 0.1; (pdr5∆) 2.73 ± 0.082; (san1∆) 2.44 ± 0.07; (ubr1∆) 2.69 ± 0.043.
NLEIPAYEFDGDKVIVG [RIP1] gave a protein stability index (doa10∆) of 2.71 ± 0.07, a protein stability index (pdr5∆) of 2.61 ± 0.093, a protein stability index (san1∆) of 2.65 ± 0.064 and a protein stability index (ubr1∆) of 2.72 ± 0.077.
Turning to YNVCDTSKSLVKRYRLA [SIN4], the protein stability index worked out at 2.39 ± 0.055 (doa10∆), 2.81 ± 0.058 (pdr5∆), 2.58 ± 0.062 (san1∆) and 3.16 ± 0.042 (ubr1∆).
As for NVTTILDEIFSGCDSTK [ECM29], the protein stability index runs as follows: (doa10∆) 2.28 ± 0.12; (pdr5∆) 2.8 ± 0.087; (san1∆) 2.48 ± 0.073; (ubr1∆) 2.63 ± 0.042.
CILYDADESKMAKLNEC [RET1]: the protein stability index came to 2.28 ± 0.062 (doa10∆), 1.99 ± 0.06 (pdr5∆), 2.32 ± 0.1 (san1∆) and 1.76 ± 0.055 (ubr1∆).
As for IAINFTVNHSEKFPNDV [RPP1], the protein stability index runs as follows: (doa10∆) 2.68 ± 0.068; (pdr5∆) 2.87 ± 0.047; (san1∆) 2.95 ± 0.051; (ubr1∆) 3.02 ± 0.058.
Consider PLPLDLNVQVWHIEETG [ITC1], for which the protein stability index by setting is: (doa10∆) 1.87 ± 0.063; (pdr5∆) 2.17 ± 0.059; (san1∆) 2.18 ± 0.089; (ubr1∆) 2.17 ± 0.071.
Consider ARDLLTRDEKDPKRLFE [RPS9A], for which the protein stability index runs as follows: (doa10∆) 3.37 ± 0.19; (pdr5∆) 3.6 ± 0.11; (san1∆) 3.14 ± 0.14; (ubr1∆) 3.62 ± 0.083.
For GHVGSVQISNIPDIGDL [PRP8], the protein stability index is, setting by setting: (doa10∆) 3.11 ± 0.067; (pdr5∆) 2.95 ± 0.053; (san1∆) 2.79 ± 0.058; (ubr1∆) 3.03 ± 0.046.
LNDLNHLLVQLQKNDVY [REC8]: the protein stability index is, setting by setting: (doa10∆) 2.52 ± 0.051; (pdr5∆) 2.48 ± 0.047; (san1∆) 2.47 ± 0.058; (ubr1∆) 2.17 ± 0.042.
For LGKQSSSLLSRLISSKM [FAS2], in that order: 2.98 ± 0.065, 2.94 ± 0.065, 3.02 ± 0.078 and 2.7 ± 0.048.
Turning to AKRVENFNSSAPIADDN [DSN1], the protein stability index (doa10∆) is 3.19 ± 0.084, the protein stability index (pdr5∆) came out at 3.32 ± 0.075, the protein stability index (san1∆) amounted to 2.9 ± 0.1 and the protein stability index (ubr1∆) amounted to 3.43 ± 0.059.
In the case of QEHTIFTQLKKNIPKTR [SNU114], the protein stability index turned out to be 1.8 ± 0.045 (doa10∆), 2.16 ± 0.05 (pdr5∆), 2.64 ± 0.049 (san1∆) and 1.62 ± 0.037 (ubr1∆).
In turn, LEYMNTARINNRRLFKK [RRI2] had a protein stability index (doa10∆) of 2.5 ± 0.08, a protein stability index (pdr5∆) of 2.21 ± 0.072, a protein stability index (san1∆) of 2.3 ± 0.083 and a protein stability index (ubr1∆) of 2.5 ± 0.075.
